According to US6596319B2, “Immunomodulating compositions for treatment of immune system disorders” (Lorus Therapeutics Inc., priority 2001, dated 2003):
Read-outs that look alike come from different tables or passages of the source.

Columns and labels:
Chang hepatoma cells [1] = experiment: Monocyte/Macrophage Cytotoxicity Assay to cell line (51Cr release); details: peripheral blood monocytes from cancer patients; activator + Indomethacin (up to 5 ng/ml)
Experimental: (§3) This procedure has been named the “Monocyte/Macrophage Cytotoxicity Assay to Cell Lines and Autologous Tumor Cells,” or “Cytotoxicity Assay” for short.
(§4) The method requires isolation of monocytes/macrophages phages, which is accomplished as follows: Venous blood is collected aseptically in heparinized Vacutainer tubes. Sterile preservative-free heparin is added to a final concentration of 20 units/ml. The blood is diluted 3:1 in Hanks balanced salt solution (HBSS), layered onto lymphocyte separation medium and centrifuged to obtain a band of peripheral blood mononuclear cells (PBMNs). After centrifugation, the mononuclear cell layer is recovered from the interface, washed twice in medium (medium is Roswell Park Memorial Institute [RPMI] 1640 media supplemented with 10% heat-inactivated fetal bovine serum, 50 units/ml penicillin, and 50 μg/ml streptomycin) and monocytes are enumerated by latex ingestion. Monocytes are isolated by adherence in 96-well plastic plates (for 2 hours at 37° C., followed by two cycles of washing with medium). […]
(§5) For studies using a standard cell line, ^51Cr (chromium) labelled Chang hepatoma cells are used because this cell line is insensitive to natural killer cell cytotoxicity. […] After 24 hours, supernatants are collected and ^51Cr release is quantitated. The percent specific cytotoxicity is calculated as: [formula] […]

peritoneal macrophages [2] = experiment: NO release from macrophages harvested from treated mice; assay type: in vivo, C57BL/6 mice; details: mice injected with nothing; in vitro stimulant IFN-γ
Experimental: (§1) In vivo production of TNF-α over 72 hours was studied on macrophages harvested from C57BL/6 mice that, prior to harvest, were treated with nothing, injected intraperitoneally 72 hours previously with 1.5 and 4% protease peptone, or injected intraperitoneally 72, 48, or 24 hours previously with 1.0 ml Virulizin™ diluted 1:10 in PBS. The macrophage monolayers were treated in vitro for 24 hours with IFN-γ (50 μ/ml), LPS only (5 ng/ml), or the combination thereof. TNF and NO were determined as recited above.
In vivo production of NO over 72 hrs was studied with macrophage cells and tests under the same conditions described above with respect to TNF-α production. There was a small spontaneous release of NO measured at 24 and 48 hrs after intraperitoneal injection of VIRULIZIN™ (hereinafter IP Virulizin™). […] The harvested macrophages that had received IP VIRULIZIN™ 72 hrs before responded no differently than macrophages that had no VIRULIZIN™ pretreatment. […] The maximum response was with macrophages pretreated with VIRULIZIN™ 48 hrs before harvesting and testing.

peritoneal macrophages [3] = experiment: In vitro stimulation of protease peptone peritoneal macrophages: NO (Greiss reagent); assay type: cell-based, C57BL/6 mice; details: stimulant alone
Experimental: (§2) Peritoneal macrophages were harvested from C57BL/6 mice 72 hours after intraperitoneal injection of 1.5 ml of 4% protease peptone. The macrophages were then stimulated in vitro with medium alone, 50 ng LPS, or VIRULIZIN™. Measurements of the stimulation was done with respect to TNF (by ELISA) and NO (by spectrophotometric assay using the Greiss reagent) levels in duplicate experiments. Standard error of the mean between duplicate experiments was less than 10%. […] Nitric oxide production was zero.
In vitro synergy of Virulizin™ with LPS for nitric oxide (NO) was addressed in the same procedure as above, except NO was determined in the supernatant of the treated macrophages. As above, the assay for NO is spectrophotometric and uses a Greiss reagent. As noted in the table above, LPS causes some release of NO (9 μm). VIRULIZIN™ in synergy with LPS induces a marked increase in NO production (13-27 μm) to dilutions of 1:40.
In vitro synergy of Virulizin™ with IFN-γ for NO release was studied, using the same peritoneal mouse macrophages derived from C57BL/6 mice treated as above. The data are included in the table above concerning “Synergistic Combinations.” As shown, LPS and IFN-γ alone each enhanced NO production (9 and 7 μm, respectively). VIRULIZIN™ added to IFN-γ induced a marked increase in NO production (47-57 μm) that almost equaled the combination of LPS and IFN-γ (74 μM). […]

peritoneal macrophages [4] = experiment: In vitro stimulation of protease peptone peritoneal macrophages: TNF (ELISA); assay type: cell-based, C57BL/6 mice; details: stimulant alone; 24 hours of in vitro culture
Experimental: as §2
In vitro synergy of Virulizin™ with LPS for TNF-α release was also addressed. Peritoneal macrophages were harvested from C57BL/6 mice after the same aforementioned treatment. The macrophages were then stimulated with 50 ng LPS alone or LPS with different dilutions of VIRULIZIN™. As above, TNF was determined via ELISA. As noted in Table XIX, LPS alone induces about 2900 pg/ml of TNF-α release from mouse peritoneal macrophages in vitro compared to 262 pg/ml for medium. When LPS is combined with VIRULIZIN™, there is about an 800 pg/ml increase in TNF-alpha release at dilutions of VIRULIZIN™ 1:5 and 1:10 and enhanced release to at least 1:40.
In vitro synergy of Virulizin™ with IFN-γ for TNF-α release was studied, using the same peritoneal mouse macrophages derived from C57BL/6 mice treated as above. […] The same macrophages stimulated with either LPS or IFN-γ release almost 3000 pg/ml of TNF-α. […]

peritoneal macrophages [5] = experiment: TNF release from macrophages harvested from treated mice; assay type: in vivo, C57BL/6 mice; details: mice injected with nothing; in vitro stimulant IFN-γ, 24 hours
Experimental: as §1
As described, the release of TNF-α from macrophages was examined in the absence of a stimulus or with IFN-γ, LPS, or LPS/IFN-γ after 24 hrs in vitro culture. […] Likewise, there was a synergistic effect of LPS and IFN-γ on harvested macrophages that were stimulated 24 and 48 hrs but not 72 hrs before testing.

Chang hepatoma cells [6] = test system: Chang hepatoma cells
Experimental: as §3, §4, §5

Experimental for autologous tumor cells: The method requires isolation of monocytes/macrophages phages, which is accomplished as follows: Venous blood is collected aseptically in heparinized Vacutainer tubes. Sterile preservative-free heparin is added to a final concentration of 20 units/ml. The blood is diluted 3:1 in Hanks balanced salt solution (HBSS), layered onto lymphocyte separation medium and centrifuged to obtain a band of peripheral blood mononuclear cells (PBMNs). After centrifugation, the mononuclear cell layer is recovered from the interface, washed twice in medium (medium is Roswell Park Memorial Institute [RPMI] 1640 media supplemented with 10% heat-inactivated fetal bovine serum, 50 units/ml penicillin, and 50 μg/ml streptomycin) and monocytes are enumerated by latex ingestion. Monocytes are isolated by adherence in 96-well plastic plates (for 2 hours at 37° C., followed by two cycles of washing with medium). Adherent cells are estimated to be greater than 90% monocytes. […] The tumor cells are maintained in medium in which endotoxin concentration is guaranteed by the manufacturer to be low and is non-stimulatory in the assay.
For studies using autologous tumor cells, these cells are obtained from surgical biopsies, labelled with ^51C, and used in the same way as the hepatoma cells described above. […]

GM-CSF: granulocyte macrophage colony stimulating factor
% Cytotoxicity (Chang hepatoma cells [1]): 17.8 ± 8%

IFN-γ: gamma interferon
NO (peritoneal macrophages [2]): 25.8 ± 1.6 µM | NO production (peritoneal macrophages [3]): 7 μm | TNF-α release (peritoneal macrophages [4]): ~3000 pg/mL | TNF (peritoneal macrophages [5]): 402 pg/mL

Interleukin-12: interleukin-12
% Tumor Cytotoxicity (E/T = 15/1) (autologous tumor cells): 11%

B1: Monocyte-CSF: monocyte colony stimulating factor (protein, UniProt P09603 33-554, looked up)
Macrophage colony-stimulating …: EEVSEYCSHMIGSGHLQSLQRLIDSQMETSCQITFEFVDQEQLKDPVCYLKKAFLLVQDIMEDTMRFRDNTPNAIAIVQLQELSLRLKSCFTKDYEEHDKACVRTFYETPLQLLEKVKNVFNETKNLLDKDWNIFSKNCNNSFAECSSQDVVTKPDCNCLYPKAIPSSDPASVSPHQPLAPSMAPVAGLTWEDSEGTEGSSLLPGEQPLHTVDPGSAKQRPPRSTCQSFEPPETPVVKDSTIGGSPQPRPSVGAFNPGMEDILDSAMGTNWVPEEASGEASEIPVPQGTELSPSRPGGGSMQTEPARPSNFLSASSPLPASAKGQQPADVTGTALPRVGPVRPTGQDWNHTPQKTDHPSALLRDPPEPGSPRISSLRPQGLSNPSTLSAQPQLSRSHSSGSVLPLGELEGRRSTRDRRSPAEPEGGPASEGAARPLPRFNSVPLTDTGHERQSEGSFSPQLQESVFHLLVPSVILVLLAVGGLLFYRWRRRSHQEPQRADSPLEQPEGSPLTQDDRQVELPV
% Cytotoxicity (Chang hepatoma cells [6]): 14.31 ± 3% | % Tumor Cytotoxicity (E/T = 15/1) (autologous tumor cells): 3%
